Laboratory results as given in patent US20170266311A1 (published 2017).
Blank lines part the entries; values can stand above or below the binder they belong to.

Experiments:
[1] = molecular target: T1, human NaPi2b (sodium-dependent phosphate transport protein 2B, SLC34A2) (human, UniProt O95436 1-690); assay: flow cytometry on OVCAR3 cells, Alexa Fluor 647 goat anti-human IgG detection, one site specific binding fit
T1 construct: also called NaPiIIb; Npt2
T1 sequence: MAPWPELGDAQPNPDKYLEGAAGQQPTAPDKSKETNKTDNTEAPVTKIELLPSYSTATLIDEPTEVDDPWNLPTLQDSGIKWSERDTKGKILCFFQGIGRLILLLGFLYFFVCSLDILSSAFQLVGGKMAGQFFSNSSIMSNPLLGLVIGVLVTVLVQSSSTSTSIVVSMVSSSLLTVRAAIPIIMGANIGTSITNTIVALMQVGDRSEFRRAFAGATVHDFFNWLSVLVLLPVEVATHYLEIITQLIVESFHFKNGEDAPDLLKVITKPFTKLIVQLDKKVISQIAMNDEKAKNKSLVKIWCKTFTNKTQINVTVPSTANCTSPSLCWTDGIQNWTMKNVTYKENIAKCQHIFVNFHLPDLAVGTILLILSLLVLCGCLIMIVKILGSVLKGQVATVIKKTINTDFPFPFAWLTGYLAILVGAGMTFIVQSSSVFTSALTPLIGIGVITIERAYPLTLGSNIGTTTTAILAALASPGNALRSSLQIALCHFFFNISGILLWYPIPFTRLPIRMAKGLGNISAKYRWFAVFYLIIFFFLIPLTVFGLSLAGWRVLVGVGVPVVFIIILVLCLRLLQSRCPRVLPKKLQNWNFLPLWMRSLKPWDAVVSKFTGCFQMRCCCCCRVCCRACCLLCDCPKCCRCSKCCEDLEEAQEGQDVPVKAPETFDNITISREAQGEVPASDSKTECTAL
Description: (§1) TOV-21G or OVCAR3 cells were grown overnight to approximately 90% confluent cultures in media, then were released from the plate surface by treatment with Trypsin-EDTA (Gibco-Thermo Fisher Scientific, USA). The detached cells were washed once with ice cold media containing 6% goat serum and resuspended in the same media. 50,000 cells were aliquoted per well of a V-bottom, 96-well plate and incubated with a range of test articles concentrations (0.23-500 nM) in 100 μl Media (1:1 mixture MCDB105 (1.5 g/L sodium bicarbonate) and Medium 199 (2.2 g/L sodium bicarbonate plus 15% FBS)) with 6% goat serum on ice for 3 hours. The cells were then washed once with ice cold PBS and resuspended in 150 μl Media with 2% goat serum and 6 μg/ml of a secondary fluorescently labeled antibody, Alexa Fluor® 647-labelled goat anti-human IgG (Life Technologies, Cat# A-21445) for 1 hour on ice. The cells were washed once with ice cold PBS and suspended in 150 μl of ice cold PBS with 1% paraformaldehyde. The amount of fluorescence bound per cell was determined by running 5000 cells for each treatment on a MACSQuant flow cytometer (Miltenyi Biotec, Bergisch Gladbach, Germany). The median fluorescence value for each treatment was graphed, and the binding constant, KD was calculated for each test article with GraphPad Prism software by non-linear regression using the one site specific binding model.

[2] = molecular target: T1, human NaPi2b (sodium-dependent …); assay: flow cytometry on TOV-21G cells, Alexa Fluor 647 goat anti-human IgG detection, one site specific binding fit
Description: as §1

Kd [1]: 6.59 nM
Kd [2]: 2.46 nM
B1: XMT 1535 antibody (antibody, human IgG1, kappa, V domains shown)
VH: QVQLVQSGAEVVKPGASVKMSCKASGYTFTGYNIHWVKQAPGQGLEWIGAIYPGNGDTSYKQKFRGRATLTADTSTSTVYMELSSLRSEDSAVYYCARGETARATFAYWGQGTLVTVSS
VL: DIQMTQSPSSLSASVGDRVTITCSASQDIGNFLNWYQQKPGKTVKVLIYYTSSLYSGVPSRFSGSGSGTDYTLTISSLQPEDFATYYCQQYSKLPLTFGQGTKLELKR
notes: Full IgG1

Kd [1]: 3.84 nM
Kd [2]: 3.97 nM
B2: Example 1C, XMT 1535-(EG2-MI-(10 kDa PHF-BA-(AF-HPA-Ala))) (antibody, human IgG1, kappa, V domains shown)
VH: B1 VH
VL: B1 VL
modifications: EG2-MI-(10 kDa PHF-BA-(AF-HPA-Ala)) polymer-drug scaffolds attached by maleimide to cysteines of the partially reduced antibody; positions and chain not stated; DAR about 11:1 to about 15:1
